Reference: article PMC9335043, “The novel ZmTCP7 transcription factor targets AGPase-encoding gene ZmBt2 to regulate storage starch accumulation in maize”

B1: PMu (mutated ZmBt2 promoter 30 bp probe) (dsDNA)
DNA 1: CACACTTTAGAAAAAACAGCCTTTACCTAA
DNA 2: TTAGGTAAAGGCTGTTTTTTCTAAAGTGTG
B2: unlabeled WT 30 bp competitor (dsDNA)
DNA 1: CACACTTTAGAACCCCACGCCTTTACCTAA
DNA 2: TTAGGTAAAGGCGTGGGGTTCTAAAGTGTG
B3: PWT (ZmBt2 promoter 30 bp probe) (dsDNA)
DNA 1: CACACTTTAGAACCCCACGCCTTTACCTAA
DNA 2: TTAGGTAAAGGCGTGGGGTTCTAAAGTGTG

Assays:
[1] = target: T1, GST-ZmTCP7 (Zea mays, UniProt B4FHV6 1-275); experiment: EMSA; LightShift chemiluminescent EMSA kit buffer (composition and pH not stated), 25 C, 30 min, 8% PAGE; settings: protein: recombinant; tags: N-terminal GST (pGEX-6-1); chain copies: 2; label: 3' biotin
T1 sequence: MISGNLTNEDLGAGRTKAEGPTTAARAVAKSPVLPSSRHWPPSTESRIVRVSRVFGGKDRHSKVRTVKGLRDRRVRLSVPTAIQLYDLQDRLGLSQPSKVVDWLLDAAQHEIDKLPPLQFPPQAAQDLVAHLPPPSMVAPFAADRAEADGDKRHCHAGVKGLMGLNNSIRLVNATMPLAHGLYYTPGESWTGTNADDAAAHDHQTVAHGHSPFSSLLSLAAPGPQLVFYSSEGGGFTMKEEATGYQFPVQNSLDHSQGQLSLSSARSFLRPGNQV

[2] = target: T1, GST-ZmTCP7; experiment: competition; unlabeled competitor vs PWT: considerably reduced at 50x, almost completely removed at 100x; LightShift chemiluminescent EMSA kit buffer (composition and pH not stated), 25 C, 30 min, 8% PAGE; settings: protein: recombinant; tags: N-terminal GST (pGEX-6-1); chain copies: 2

Row | Binder | binding result [1] | binding result [2]
1 | B1 | no binding | –
2 | B2 | – | binds
3 | B3 | binds | –
